Experimental data from US20140323392A1 (UNIVERSITY OF UTAH RESEARCH FOUNDATION, published 2014).
Read-outs that look alike come from different tables or passages of the source. Bridges are numbered along the chain shown (N, C = ends). Roman numbers before positions name the chains, in order. Where no end group is shown, it is not given here. [ ]: non-standard residue; d: D form.

Columns and labels:
Experiment in all cases: cell-based or functional assay
[1] = target: T1, HIV-1 HXB2 envelope glycoprotein gp41 (N-trimer of the prehairpin intermediate) (HIV-1 strain HXB2, UniProt P04578 512-856)
[2] = target: T2, HIV-1 HXB2 envelope glycoprotein gp41 with resistance mutations E560K/V570I (HIV-1 strain HXB2, UniProt P04578 33-856)
[3] = target: T3, HIV-1 HXB2 envelope glycoprotein gp41 with resistance mutation Q577R (HIV-1 strain HXB2, UniProt P04578 33-856)
[4] = target: T1, HIV-1 HXB2 envelope glycoprotein gp41 …; remark: listed apart in the source
[5] = target: T1, HIV-1 HXB2 envelope glycoprotein gp41 …; remark: listed apart in the source
[6] = target: T4, HIV-1 JRFL envelope glycoprotein gp41 (N-trimer of the prehairpin intermediate) (HIV-1 strain JRFL)
[7] = target: T1, HIV-1 HXB2 envelope glycoprotein gp41 …; remark: listed apart in the source
[8] = target: T4, HIV-1 JRFL envelope glycoprotein gp41 …; remark: listed apart in the source
[9] = target: T4, HIV-1 JRFL envelope glycoprotein gp41 …; remark: listed apart in the source
[10] = target: T1, HIV-1 HXB2 envelope glycoprotein gp41 …; remark: listed apart in the source
[11] = target: T2, HIV-1 HXB2 envelope glycoprotein gp41 …; remark: listed apart in the source
[12] = target: T3, HIV-1 HXB2 envelope glycoprotein gp41 …; remark: listed apart in the source
[13] = target: T4, HIV-1 JRFL envelope glycoprotein gp41 …; remark: listed apart in the source
[14] = target: HIV-1 isolate IIIB gp41 (envelope subtype B) (HIV-1 isolate IIIB)
[15] = target: HIV-1 isolate Ba-L gp41 (envelope subtype B) (HIV-1 isolate Ba-L)
[16] = target: HIV-1 isolate JR-CSF gp41 (envelope subtype B) (HIV-1 isolate JR-CSF)
[17] = target: HIV-1 isolate 92UG029 gp41 (envelope subtype A) (HIV-1 isolate 92UG029)
[18] = target: HIV-1 isolate 92UG037 gp41 (envelope subtype A) (HIV-1 isolate 92UG037)
[19] = target: HIV-1 isolate 93IN101 gp41 (envelope subtype C) (HIV-1 isolate 93IN101)
[20] = target: HIV-1 isolate 92BR025 gp41 (envelope subtype C) (HIV-1 isolate 92BR025)
[21] = target: HIV-1 isolate 92UG001 gp41 (envelope subtype D) (HIV-1 isolate 92UG001)
[22] = target: HIV-1 isolate 92UG046 gp41 (envelope subtype D) (HIV-1 isolate 92UG046)
[23] = target: HIV-1 isolate CMU02 gp41 (envelope subtype AE) (HIV-1 isolate CMU02)
[24] = target: HIV-1 isolate 93TH073 gp41 (envelope subtype E) (HIV-1 isolate 93TH073)
[25] = target: HIV-1 isolate CMU06 gp41 (envelope subtype E) (HIV-1 isolate CMU06)
[26] = target: HIV-1 isolate 93BR019 gp41 (envelope subtype BF) (HIV-1 isolate 93BR019)
[27] = target: HIV-1 isolate 93BR020 gp41 (envelope subtype F) (HIV-1 isolate 93BR020)
[28] = target: HIV-1 isolate 93BR029 gp41 (envelope subtype F) (HIV-1 isolate 93BR029)
[29] = target: HIV-1 isolate G3 gp41 (envelope subtype G) (HIV-1 isolate G3)
[30] = target: HIV-1 isolate RU570 gp41 (envelope subtype G) (HIV-1 isolate RU570)

B1: Chol-PEG36-PIE12-trimer (peptide)
peptide: Ac-[dH][dP][dC][dD][dY][dP][dE][dW][dQ][dW][dL][dC][dE][dL]GK-NH2
modifications: disulfide 3-12 (inferred); not fully specified (residue 16); also: trimer on scaffold via PEG4, fourth arm PEG36 (PEG24 + PEG12 through D-Cys) carrying thiocholesterol
- IC50, HXB2 pseudovirion entry [1]: 0.0054 nM
- IC50, E560K/V570I HXB2 pseudovirion entry [2]: 0.0045 nM
- IC50, Q577R HXB2 pseudovirion entry [3]: 2.7 nM

B2: N9N(PIE7)2 (peptide)
peptide: Ac-[dK]G[dA][dC][dD][dY][dP][dE][dW][dQ][dW][dL][dC][dA][dA]-NH2
modifications: disulfide 4-13 (inferred); also: dimer, N- to N-terminal Lys crosslinked by Bis-dPEG9 NHS ester
- fold improvement of IC50 over the corresponding monomer [4]: ~325 fold
- IC50, HXB2 pseudovirion entry [5]: 1.9 nM
- IC50, JRFL pseudovirion entry [6]: 2300 nM

B3: PEG5-ΔHP-PIE12-trimer (peptide)
peptide: [dC][dD][dY][dP][dE][dW][dQ][dW][dL][dC][dE][dL]GK
modifications: disulfide 1-10 (inferred); not fully specified (residue 14); also: homotrimer on trimethylolethane-triNHS ester scaffold
- IC50, HXB2 pseudovirion entry [7]: 380 nM

B4: C5C-PIE12-trimer (peptide)
peptide 1: Ac-[dH][dP][dC][dD][dY][dP][dE][dW][dQ][dW][dL][dC][dE][dL]G[dK]-NH2
peptide 2: Ac-[dH][dP][dC][dD][dY][dP][dE][dW][dQ][dW][dL][dC][dE][dL]G[dK][dK]-NH2
modifications: disulfide I:3-I:12, II:3-II:12 (inferred); also: trimer: C-terminal Lys linked by PEG5 spacers
- IC50, JRFL pseudovirion entry [6]: 2.8 nM
- IC50, HXB2 pseudovirion entry [1]: 0.33 nM
- IC50, JRFL pseudovirion entry [8]: 2.8 nM
- IC50, E560K/V570I HXB2 pseudovirion entry [2]: 0.84 nM
- IC50, Q577R HXB2 pseudovirion entry [3]: 2960 nM

B5: Chol-PEG24-PIE12 (monomer) (peptide)
peptide: Ac-[dH][dP][dC][dD][dY][dP][dE][dW][dQ][dW][dL][dC][dE][dL]GK-NH2
modifications: disulfide 3-12 (inferred); not fully specified (residue 16)
- IC50, HXB2 pseudovirion entry [1]: 0.4 nM
- IC50, HXB2 pseudovirion entry [7]: 0.64 nM

B6: PEG-(PIE2-AAA)2 (peptide)
peptide: Ac-[dK]G[dA][dC][dD][dY][dP][dE][dW][dR][dW][dL][dC][dA][dA][dA]-NH2
modifications: disulfide 4-13 (inferred); also: dimer, Lys crosslinked by PEG
- IC50, pseudovirion entry [4]: 21 nM
- fold improvement of IC50 over the corresponding monomer [4]: ~70 fold

B7: ΔHP-PIE12 (peptide)
peptide: [dC][dD][dY][dP][dE][dW][dQ][dW][dL][dC][dE][dL]G[dK]
modifications: disulfide 1-10 (inferred)
- fold loss of potency against PIE12 [4]: 84 fold
- IC50, HXB2 pseudovirion entry [7]: 3100 nM

B8: Chol-PEG12-PIE12 (monomer) (peptide)
peptide: Ac-[dH][dP][dC][dD][dY][dP][dE][dW][dQ][dW][dL][dC][dE][dL]GK-NH2
modifications: disulfide 3-12 (inferred); not fully specified (residue 16)
- IC50, HXB2 pseudovirion entry [1]: 11 nM
- IC50, JRFL pseudovirion entry [8]: 200 nM
- IC50, HXB2 pseudovirion entry [7]: 12 nM

B9: PIE12 (peptide)
peptide: Ac-[dH][dP][dC][dD][dY][dP][dE][dW][dQ][dW][dL][dC][dE][dL]G[dK]-NH2
modifications: disulfide 3-12 (inferred)
- IC50, JRFL pseudovirion entry [6]: 578 nM
- IC50, JRFL pseudovirion entry [8]: 580 nM

B10: Chol-PEG2-PIE12 (monomer) (peptide)
peptide: Ac-[dH][dP][dC][dD][dY][dP][dE][dW][dQ][dW][dL][dC][dE][dL]GK-NH2
modifications: disulfide 3-12 (inferred); not fully specified (residue 16)
- IC50, HXB2 pseudovirion entry [1]: 58 nM
- IC50, HXB2 pseudovirion entry [7]: 69 nM

B11: PEG4-PIE12-trimer (peptide)
peptide: Ac-[dH][dP][dC][dD][dY][dP][dE][dW][dQ][dW][dL][dC][dE][dL]GK-NH2
modifications: disulfide 3-12 (inferred); not fully specified (residue 16); also: homotrimer on trimethylolethane-triNHS ester scaffold
- IC50, HXB2 pseudovirion entry [7]: 0.72 nM
- IC50, JRFL pseudovirion entry [9]: 2.1 nM
- IC50, antiviral potency, WT HXB2 [10]: 0.72 nM
- IC50, antiviral potency, E560K/V570I (HXB2 background) [11]: 0.89 nM
- IC50, antiviral potency, Q577R (HXB2 background) [12]: > 3000 nM

B12: PIE12 trimer (Table 3) (peptide)
peptide: Ac-[dH][dP][dC][dD][dY][dP][dE][dW][dQ][dW][dL][dC][dE][dL]G[dK]-NH2
modifications: disulfide 3-12 (inferred); also: trimer, crosslinking not given here
- IC50, replication competent virus on PBMC target cells [13]: 0.26 nM
- IC50, replication competent virus on PBMC target cells [14]: 0.78 nM
- IC50, replication competent virus on PBMC target cells [15]: 0.27 nM
- IC50, replication competent virus on PBMC target cells [16]: 0.08 nM
- IC50, replication competent virus on PBMC target cells [17]: 0.69 nM
- IC50, replication competent virus on PBMC target cells [18]: 0.21 nM
- IC50, replication competent virus on PBMC target cells [19]: 0.38 nM
- IC50, replication competent virus on PBMC target cells [20]: 5.19 nM
- IC50, replication competent virus on PBMC target cells [21]: 4.45 nM
- IC50, replication competent virus on PBMC target cells [22]: 1.2 nM
- IC50, replication competent virus on PBMC target cells [23]: 0.35 nM
- IC50, replication competent virus on PBMC target cells [24]: 0.84 nM
- IC50, replication competent virus on PBMC target cells [25]: 0.38 nM
- IC50, replication competent virus on PBMC target cells [26]: 4.72 nM
- IC50, replication competent virus on PBMC target cells [27]: 0.37 nM
- IC50, replication competent virus on PBMC target cells [28]: 0.79 nM
- IC50, replication competent virus on PBMC target cells [29]: 1.21 nM
- IC50, replication competent virus on PBMC target cells [30]: 0.36 nM
